Measurements from FireProtDB (doi:10.1016/j.jmb.2004.09.091).

Settings: Dictyostelium discoideum, pH 6.7, Urea, Fluorescence, KH2PO4/K2HPO4 50 mM, reversible: Yes

Chain of Hisactophilin-1 wild type (P13231 whole entry, looked up): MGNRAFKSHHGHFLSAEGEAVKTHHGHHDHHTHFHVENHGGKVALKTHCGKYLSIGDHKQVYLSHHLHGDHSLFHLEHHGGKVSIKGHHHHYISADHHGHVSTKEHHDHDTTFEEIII

For “Hisactophilin-1 wild type (from UniProt P13231)”, the denaturant m value (5 °C) was 2.66 kcal/mol/M, the “denaturant midpoint (higher = more stable)” value (shortened to “denaturant midpoint”) (5 °C) was 2.14 M and the unfolding free energy (5 °C) was 5.37 kcal/mol. The denaturant m value (15 °C) was 2.7 kcal/mol/M, the “denaturant midpoint” value (15 °C) was 2.58 M and the unfolding free energy (15 °C) was 6.5 kcal/mol. The denaturant m value (20 °C) was 2.53 kcal/mol/M, the “denaturant midpoint” value (20 °C) was 2.89 M and the unfolding free energy (20 °C) was 6.71 kcal/mol. The denaturant m value (25 °C) was 2.51 kcal/mol/M, the “denaturant midpoint” value (25 °C) was 2.91 M and the unfolding free energy (25 °C) was 6.68 kcal/mol. The denaturant m value (30 °C) was 2.28 kcal/mol/M, the “denaturant midpoint” value (30 °C) was 2.95 M and the unfolding free energy (30 °C) was 6.08 kcal/mol. The denaturant m value (35 °C) was 2.44 kcal/mol/M, the “denaturant midpoint” value (35 °C) was 2.87 M and the unfolding free energy (35 °C) was 6.43 kcal/mol. For the same substance, the denaturant m value (40 °C) was 2.34 kcal/mol/M, the “denaturant midpoint” value (40 °C) was 2.63 M and the unfolding free energy (40 °C) was 5.67 kcal/mol. The denaturant m value (45 °C) was 2.24 kcal/mol/M, the “denaturant midpoint” value (45 °C) was 2.45 M and the unfolding free energy (45 °C) was 5.05 kcal/mol.
